One data set has as its system Cys45. The experiment in a line: UV-vis. Particulars: 10 °C; poly-buffer: 10 mM sodium acetate, 10 mM sodium phosphate, 10 mM sodium borate, 10 mM sodium citrate, pH 9.4, titrated with 100 mM HCl; Reduced protein (20 µM), referenced to CHP-oxidised protein; folded.
In the next data set the test system is Cys42. The experiment in a line: UV-vis. Particulars: 10 °C; poly-buffer: 10 mM sodium acetate, 10 mM sodium phosphate, 10 mM sodium borate, 10 mM sodium citrate, pH 9.4, titrated with 100 mM HCl; Reduced protein (20 µM), referenced to CHP-oxidised protein; folded.

Broadly, the pKa is the negative logarithm of the acid dissociation constant.

“Alkyl hydroperoxide reductase CgAhp (NCgl0877), AhpD-like disulfide oxidoreductase (Corynebacterium glutamicum (strain RES167, derivative of ATCC 13032))”: the pKa in the data set on Cys45 is reported as 8.39; with Cys42, “lower than 6”.

The values are drawn from article PMC10460364.
